{
  "source": "patent US20250369044",
  "key": {"[1]": {"test_system": "mNG-beta_hairpin (mNG with a hairpin blocking domain and ssrA tag)"}, "[2]": {"test_system": "MBP-1 (His-tagged Maltose Binding Protein with C-terminal leader: polyglycine stall, polyarginine capture, ssrA recognition motif)"}, "[3]": {"test_system": "mNG-HTH (mNG with a helix-turn-helix blocking domain and ssrA tag)"}, "[4]": {"test_system": "mNG-alpha_helix (mNG with an alpha-helical blocking domain and ssrA tag)"}, "[5]": {"test_system": "MBP-C chemically tagged on its C-terminal cysteine with the maleimide Peptide-2 tag"}, "[6]": {"test_system": "C-MBP dimer (MBP variant with a cysteine on the third residue, disulfide-linked N-terminus to N-terminus homodimer)"}, "[7]": {"test_system": "{MBP}-{MBP-1}, genetic fusion protein of two MBP proteins (805 amino acids, 88 kDa)"}},
  "data": [
    {"substance": "E. coli ClpX, N-terminal truncated variant (residues 61-423)", "values": [
      {"measurement": "fluorescence over time at 37° C. after adding ClpX and ATP", "setting": "[1]", "result": "no decrease in fluorescence"},
      {"measurement": "ClpX controlled translocation with 1M KGlu in cis and 1 M KCl in trans", "setting": "[2]", "result": "ClpX controlled MBP-1 translocations were obtained from CytK 4D2E nanopores systems with 1M KGlu in the cis and 1 M KCl in trans"},
      {"measurement": "ClpX-controlled translocation of MBP-1 through the nanopore (ionic current)", "setting": "[2]", "result": "clear and consistent capture and subsequent ClpX-controlled translocation of MBP-1 was observed"},
      {"measurement": "rate of ClpX translocating along the polypeptide", "setting": "[2]", "result": "about 12-15 aa/second in these conditions"},
      {"measurement": "trans-to-cis ClpX controlled translocation (ionic current)", "setting": "[2]", "result": "characteristic ClpX controlled MBP-1 translocation events occurred trans-to-cis"},
      {"measurement": "translocation with 2.5 mM Gamma-S-ATP in place of ATP", "setting": "[2]", "result": "long blockades that never progressed to the changing current levels phase associated with ClpX translocase controlled movement of polypeptide that was observed under regular ATP conditions"},
      {"measurement": "fluorescence over time at 37° C. after adding ClpX and ATP", "setting": "[3]", "result": "no decrease in fluorescence"},
      {"measurement": "fluorescence over time at 37° C. after adding ClpX and ATP", "setting": "[4]", "result": "no decrease in fluorescence"},
      {"measurement": "ClpX controlled translocation of tagged MBP (ionic current)", "setting": "[5]", "result": "ClpX controlled MBP translocations (marked by arrows) are evident from the characteristic pattern of changing ionic current signals"},
      {"measurement": "nanopore read of the disulfide-linked dimer with ClpX and ATP in cis", "setting": "[6]", "result": "After reading the first monomer of C-MBP, the unfoldase was able to pass through the disulfide bond, after which it reads the second C-MBP monomer in the N- to C-terminus direction"},
      {"measurement": "full length single-molecule reads with ClpX and ATP in cis", "setting": "[7]", "result": "full length reads of the protein were reliably obtained"}
    ]}
  ]
}
